Target: fluorophore-conjugated GCK peptide (aa 59-74), wild type (human) (UniProt P35557)
Assay: fluorescence polarisation

“TNKS ARC1-5 with a C-terminal (His)6 tag (from UniProt O95271 1-1327) (domain or fragment)” showed a Kd of 500 nM.
